Assay results from the supplement of paper PMC11811203.

B1: THAP1; numbered along this chain (parent)
chain: MVQSCSAYGCKNRYDKDKPVSFHKFPLTRPSLCKEWEAAVRRKNFKPTKYSSICSEHFTPDCFKRECNNKLLKENAVPTIFLCTEPHDKKEDLLEPQEQLPPPPLPPPVSQVDAAIGLLMPPLQTPVNLSVFCDHNYTVEDTMHQRKRIHQLEQQVEKLRKKLKTAQQRCRRQERQLEKLKEVVHFQKEKDDVSERGYVILPNDYFEIVEVPA

Variants of: B1
Experiment: THAP1 transcriptional activity (GFP+/GFP- enrichment relative to wild-type constructs) (ratio to WT); higher = more THAP1 activity (PSMB5 reporter activation)
Details: with PSMB5 promoter-GFP reporter
Outline: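 In duplicate, a lentivirus-delivered library with every residue from 2–213 of human THAP1 changed to all 20 amino acids was introduced at MOI ~0.3 into THAP1-knockout HEK-293T cells carrying endogenous PSMB5 tagged by mClover3 knock-in. Five days on, BFP+ cells were binned as GFP-dim or GFP-bright, and Illumina sequencing of genomic DNA amplicons counted each variant. Activity is the bright/dim read fold change, averaged over replicates and scaled to the mean of wild-type synonymous constructs.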

Variant | THAP1 transcriptional activity
MVQSCSAYGCKNRYDKDKPVSFHKFPLTRPSLCKEWEAAVRRKNFKPTKYSSICSEHFTPDCFKRECNNKLLKENAVPTIFLCTEPHDKKEDLLEPQEQLPPPPLPPPVSQVDAAIGLLMPPLQTPVNLSVFCDHNYTVEDTMHQRKRIHQLEQQVEKLRKKLKTAQQRCRRQERQLEKLKEVVHFAKEKDDVSERGYVILPNDYFEIVEVPA [Q187A] | 1.21
MVQSCSAYGCKNRYDKDKPVSFHKFPLTRPSLCKEWEAAVRRKNFKPTKYSSICSEHFTPDCFKRECNNKLLKENAVPTIFLCTEPHDKKEDLLEPQEQLPPPPLPPPVSQVDAAIGLLMPPLQTPVNLSVFCDHNYTVEDTMHQRKRIHQLEQQVEKLRKKLKTAQQRCRRQERQLEKLKEVVHFCKEKDDVSERGYVILPNDYFEIVEVPA [Q187C] | 0.911
MVQSCSAYGCKNRYDKDKPVSFHKFPLTRPSLCKEWEAAVRRKNFKPTKYSSICSEHFTPDCFKRECNNKLLKENAVPTIFLCTEPHDKKEDLLEPQEQLPPPPLPPPVSQVDAAIGLLMPPLQTPVNLSVFCDHNYTVEDTMHQRKRIHQLEQQVEKLRKKLKTAQQRCRRQERQLEKLKEVVHYQKEKDDVSERGYVILPNDYFEIVEVPA [F186Y] | 1.36
MVQSCSAYGCKNRYDKDKPVSFHKFPLTRPSLCKEWEAAVRRKNFKPTKYSSICSEHFTPDCFKRECNNKLLKENAVPTIFLCTEPHDKKEDLLEPQEQLPPPPLPPPVSQVDAAIGLLMPPLQTPVNLSVFCDHNYTVEDTMHQRKRIHQLEQQVEKLRKKLKTAQQRCRRQERQLEKLKEVVHHQKEKDDVSERGYVILPNDYFEIVEVPA [F186H] | 1.25
MVQSCSAYGCKNRYDKDKPVSFHKFPLTRPSLCKEWEAAVRRKNFKPTKYSSICSEHFTPDCFKRECNNKLLKENAVPTIFLCTEPHDKKEDLLEPQEQLPPPPLPPPVSQVDAAIGLLMPPLQTPVNLSVFCDHNYTVEDTMHQRKRIHQLEQQVEKLRKKLKTAQQRCRRQERQLEKLKEVVHSQKEKDDVSERGYVILPNDYFEIVEVPA [F186S] | 1.93
MVQSCSAYGCKNRYDKDKPVSFHKFPLTRPSLCKEWEAAVRRKNFKPTKYSSICSEHFTPDCFKRECNNKLLKENAVPTIFLCTEPHDKKEDLLEPQEQLPPPPLPPPVSQVDAAIGLLMPPLQTPVNLSVFCDHNYTVEDTMHQRKRIHQLEQQVEKLRKKLKTAQQRCRRQERQLEKLKEVVHLQKEKDDVSERGYVILPNDYFEIVEVPA [F186L] | 1.31
MVQSCSAYGCKNRYDKDKPVSFHKFPLTRPSLCKEWEAAVRRKNFKPTKYSSICSEHFTPDCFKRECNNKLLKENAVPTIFLCTEPHDKKEDLLEPQEQLPPPPLPPPVSQVDAAIGLLMPPLQTPVNLSVFCDHNYTVEDTMHQRKRIHQLEQQVEKLRKKLKTAQQRCRRQERQLEKLKEVVHRQKEKDDVSERGYVILPNDYFEIVEVPA [F186R] | 1.31
MVQSCSAYGCKNRYDKDKPVSFHKFPLTRPSLCKEWEAAVRRKNFKPTKYSSICSEHFTPDCFKRECNNKLLKENAVPTIFLCTEPHDKKEDLLEPQEQLPPPPLPPPVSQVDAAIGLLMPPLQTPVNLSVFCDHNYTVEDTMHQRKRIHQLEQQVEKLRKKLKTAQQRCRRQERQLEKLKEVVHIQKEKDDVSERGYVILPNDYFEIVEVPA [F186I] | 1.08
MVQSCSAYGCKNRYDKDKPVSFHKFPLTRPSLCKEWEAAVRRKNFKPTKYSSICSEHFTPDCFKRECNNKLLKENAVPTIFLCTEPHDKKEDLLEPQEQLPPPPLPPPVSQVDAAIGLLMPPLQTPVNLSVFCDHNYTVEDTMHQRKRIHQLEQQVEKLRKKLKTAQQRCRRQERQLEKLKEVVHMQKEKDDVSERGYVILPNDYFEIVEVPA [F186M] | 1.32
MVQSCSAYGCKNRYDKDKPVSFHKFPLTRPSLCKEWEAAVRRKNFKPTKYSSICSEHFTPDCFKRECNNKLLKENAVPTIFLCTEPHDKKEDLLEPQEQLPPPPLPPPVSQVDAAIGLLMPPLQTPVNLSVFCDHNYTVEDTMHQRKRIHQLEQQVEKLRKKLKTAQQRCRRQERQLEKLKEVVHQQKEKDDVSERGYVILPNDYFEIVEVPA [F186Q] | 2.25
MVQSCSAYGCKNRYDKDKPVSFHKFPLTRPSLCKEWEAAVRRKNFKPTKYSSICSEHFTPDCFKRECNNKLLKENAVPTIFLCTEPHDKKEDLLEPQEQLPPPPLPPPVSQVDAAIGLLMPPLQTPVNLSVFCDHNYTVEDTMHQRKRIHQLEQQVEKLRKKLKTAQQRCRRQERQLEKLKEVVHKQKEKDDVSERGYVILPNDYFEIVEVPA [F186K] | 1.59
MVQSCSAYGCKNRYDKDKPVSFHKFPLTRPSLCKEWEAAVRRKNFKPTKYSSICSEHFTPDCFKRECNNKLLKENAVPTIFLCTEPHDKKEDLLEPQEQLPPPPLPPPVSQVDAAIGLLMPPLQTPVNLSVFCDHNYTVEDTMHQRKRIHQLEQQVEKLRKKLKTAQQRCRRQERQLEKLKEVVHVQKEKDDVSERGYVILPNDYFEIVEVPA [F186V] | 1.11
MVQSCSAYGCKNRYDKDKPVSFHKFPLTRPSLCKEWEAAVRRKNFKPTKYSSICSEHFTPDCFKRECNNKLLKENAVPTIFLCTEPHDKKEDLLEPQEQLPPPPLPPPVSQVDAAIGLLMPPLQTPVNLSVFCDHNYTVEDTMHQRKRIHQLEQQVEKLRKKLKTAQQRCRRQERQLEKLKEVVHPQKEKDDVSERGYVILPNDYFEIVEVPA [F186P] | 1.48
MVQSCSAYGCKNRYDKDKPVSFHKFPLTRPSLCKEWEAAVRRKNFKPTKYSSICSEHFTPDCFKRECNNKLLKENAVPTIFLCTEPHDKKEDLLEPQEQLPPPPLPPPVSQVDAAIGLLMPPLQTPVNLSVFCDHNYTVEDTMHQRKRIHQLEQQVEKLRKKLKTAQQRCRRQERQLEKLKEVVHTQKEKDDVSERGYVILPNDYFEIVEVPA [F186T] | 1.21
